Data reported in PMC8367383, “A CTP-dependent gating mechanism enables ParB spreading on DNA” (eLife, 2021).

B1: C. crescentus ParB on a cysteine-less ParB background [C. crescentus] / itself (parent)
chain: MESVVVGEPGMSEGRRGLGRGLSALLGEVDAAPACAPGEQLGGSREAPIEILQRNPDQPRRTFREEDLEDLSNSIREKGVLQPILVRPSPDTAGEYQIVAGERRWRAAQRAGLKTVPIMVRELDDLAVLEIGIIENVQRADLNVLEEALSYKVLMEKFERTQENIAQTIGKSRSHVANTMRLLALPDEVQSYLVSGELTAGHARAIAAAADPVALAKQIIEGGLSVRETEALARKAPNLSAGKSKGGRPPRVKDTDTQALESDLSSVLGLDVSIDHRGSTGTLTITYATLEQLDDLSNRLTRGI

Variants of: B1
Experiment: BMOE crosslinking assay
Conditions: with itself, 8 µM ParB variant, 0.5 µM 22 bp parS DNA, 5 min preincubation, read off a plot
[1] = 1 µM CTP point (lowest), parent: 33
[2] = 1000 µM CTP point (highest), parent: 80

Variant	response [1]	response [2]
chain 1 E102A	31%	80%
chain 1 Q58A	64%	79%
chain 1 N136A	52%	64%
chain 1 Q82A	31%	76%
chain 1 G79S	27%	62%
chain 1 R60A	32%	49%
chain 1 E135A	68%	80%

The next lines start with the values.

response [1]	response [2]	Variant
24%	23%	chain 1 R104A
30%	34%	chain 1 R103A
28%	36%	chain 1 R139A
28%	39%	chain 1 S74A
